In paper PMC8002387:

Target: QtEnc^FLAG (encapsulin shell protein from Quasibacillus thermotolerans with a C-terminal FLAG tag) (Quasibacillus thermotolerans)

## DD-mScarlet-I-QtSig (destabilized fluorescent cargo protein)
  mScarlet-I fluorescence (RFP channel) of HepG2 cells coexpressing QtEnc^FLAG and the degron-tagged cargo; share of fluorescent cells; cells with the cargo alone gave a weak background signal: 20 % of cells
